Numbering of substitutions follows the chain as printed.
B1: MOR03790 Fab (Fab, V domains shown)
VH: QVELVQSGAEVKKPGSSVKVSCKASGGTFSSYGISWVRQAPGQGLEWMGGIIPIFGTANYAQKFQGRVTITADESTSTAYMELSSLRSEDTAVYYCARYDGIYGELDFWGQGTLVTVSS
VL: not shown
B2: MOR03790 IgG1 (antibody, V domains shown)
VH: B1 VH
VL: not shown
B3: MOR03850 Fab (Fab, V domains shown)
VH: B1 VH with G50A, I52N, I54L, F55A, T57H, A58T, N59H
VL: not shown
B4: MOR03781 IgG1 (antibody, V domains shown)
VH: B1 VH
VL: not shown
B5: MOR03850 IgG1 (antibody)
chain 1: B1 VH with G50A, I52N, I54L, F55A, T57H, A58T, N59H
chain 2: not shown
modifications: not checked
B6: MOR03781 Fab (Fab, V domains shown)
VH: B1 VH
VL: not shown
B7: MOR03754 Fab (Fab)
chain 1: QVQLVESGGGLVQPGGSLRLSCAASGFTFRSYGMSWVRQAPGKGLEWVSSIEHKWSGYATTYAASVKGRFTISRDNSKNTLYLQMNSLRAEDTAVYYCARFEFTPWTYFDFWGQGTLVTVSS
chain 2: DIELTQPPSVSVAPGQTARISCSGDNLGKKYVYWYQQKPGQAPVLVIYDDDNRPSGIPERFSGSNSGNTATLTISGTQAEDEADYYCQSYTAQSSASFGGGTKLTVL
modifications: not checked

These binders were tested against T1, human monocyte chemoattractant protein-1 (MCP-1) (human), P13500 (assay: SET, IGEN (BioVeris)).
T1 sequence (P13500 other isoform, or with tags, fused parts or gaps, form in doubt): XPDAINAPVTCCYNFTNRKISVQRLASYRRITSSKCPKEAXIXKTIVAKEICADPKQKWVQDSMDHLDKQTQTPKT
B1 gave a Kd of 0.12 nM. B2 was tested, and the Kd was 0.07 nM. Binder B3 has a Kd of 0.04 nM. Work on B4 yielded a Kd of 0.02 nM. B5 gave a Kd of 0.01 nM. Work on B6 yielded a Kd of 0.03 nM.

These binders were tested against T1, human monocyte chemoattractant … (assay: cell-based or functional assay).
With B1 the Inhibition of Ca2+ Mobilization IC50 was 25 nM. Binder B2 has an Inhibition of Ca2+ Mobilization IC50 of 4.26 nM. Binder B3 has an Inhibition of Ca2+ Mobilization IC50 of 28.4 nM. With B4 the Inhibition of Ca2+ Mobilization IC50 was 10.9 nM. B5 was tested, and the Inhibition of Ca2+ Mobilization IC50 was 9.47 nM. B6 was tested, and the Inhibition of Ca2+ Mobilization IC50 was 21.8 nM.

What follows are binders tested against cynomolgus monkey MCP-1 (cynomolgus monkey), P61274 (assay: SET, BioVeris, cyno MCP-1).
cynomolgus monkey MCP-1 (cynomolgus monkey), P61274, sequence (P61274 24-99 limits assumed): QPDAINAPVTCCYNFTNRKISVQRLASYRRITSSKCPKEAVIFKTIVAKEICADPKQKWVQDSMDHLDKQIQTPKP
For B5, the Kd was 0.01 nM.

What follows are binders tested against T1, human monocyte chemoattractant … (assay: SET, BioVeris, Fab, rh MCP-1).
B1 showed a Kd of 0.12 nM. Binder B3 has a Kd of 0.04 nM. B6 was tested, and the Kd was 0.03 nM.

What follows are binders tested against T1, human monocyte chemoattractant … (assay: SET, BioVeris, IgG1, rh MCP-1).
Work on B2 yielded a Kd of 0.07 nM. B4 was tested, and the Kd was 0.02 nM. With B5 the Kd was 0.011 nM.

These binders were tested against cynomolgus monkey MCP-1 (cynomolgus monkey), P61274 (assay: SET, BioVeris, IgG1, cyno MCP-1).
Work on B5 yielded a Kd of 0.021 nM.

These binders were tested against T1, human monocyte chemoattractant … (assay: 125I-MCP-1 binding to THP-1 cells, radio-ligand competition).
For B1, the IC50 was 0.26 nM. Binder B2 has an IC50 of 0.03 nM. Work on B3 yielded an IC50 of 0.16 nM. B4 gave an IC50 of 0.02 nM. B5 showed an IC50 of 0.05 nM. B6 showed an IC50 of 0.18 nM.

Molecular target: T2, human MCP-2 (human), P80075
T2 chain: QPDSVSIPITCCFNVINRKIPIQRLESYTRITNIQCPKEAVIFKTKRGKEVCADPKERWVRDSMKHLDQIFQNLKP
Experiment: 125I-MCP-2 binding to CCR2 on THP-1 cells, radio-ligand competition
With B7 the IC50 was over 2000 nM.
